In patent US20200277373A1 (DENALI THERAPEUTICS, published 2020):
Substitutions are numbered along the chain they refer to.

How the values were obtained:
Mouse TREM2, on cells [1] = molecular target: T1, Mouse TREM2, on cells (mouse, UniProt Q99NH8 19-227); assay: flow cytometry, 293F cells overexpressing mouse TREM2
T1 construct: whole, on cells; also called mouse TREM2 HEK
T1 sequence (looked up): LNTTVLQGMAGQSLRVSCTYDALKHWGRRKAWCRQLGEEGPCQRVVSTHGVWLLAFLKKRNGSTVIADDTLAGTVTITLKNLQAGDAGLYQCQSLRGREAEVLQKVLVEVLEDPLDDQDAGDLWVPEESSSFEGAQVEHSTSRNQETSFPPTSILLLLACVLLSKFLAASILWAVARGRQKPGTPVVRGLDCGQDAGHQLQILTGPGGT
Procedure: (§1) After labeling, cells were washed twice with 1×PBS. […] Mixed cell lines were seeded at 300,000 cells per well in a 96-well round-bottom and incubated 20 minutes at room temperature. After incubation, cells were centrifuged and test anti-TREM2 antibodies were added, then incubated for 45 minutes on ice. After incubation, cells were centrifuged and washed with FACS buffer three times.
(§2) The data in Table 2 is presented as fold over binding (FOB).

[2] = molecular target: T2, Human TREM2 protein, on cells (human, UniProt Q9NZC2 19-230); assay: flow cytometry, HEK293 cells overexpressing human TREM2
T2 construct: Wild type human TREM2 expressed with DAP12 on HEK293 cells (clone H6), or endogenous on primary human monocyte-derived macrophages; also called hTREM2-HEK; HEK293-H6
T2 sequence: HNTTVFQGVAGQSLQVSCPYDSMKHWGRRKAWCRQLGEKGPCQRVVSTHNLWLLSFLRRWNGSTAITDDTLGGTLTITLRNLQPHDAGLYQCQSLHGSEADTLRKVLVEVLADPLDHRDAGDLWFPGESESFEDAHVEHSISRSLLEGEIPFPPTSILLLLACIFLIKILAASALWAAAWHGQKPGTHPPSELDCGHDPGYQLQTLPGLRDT
Procedure: as §1, §2

[3] = molecular target: T3, His-tagged TREM2 ECD (ecto domain residues 19-172 of human TREM2, C-terminal 6X-His tag) (human, UniProt Q9NZC2 19-172); assay: Table 1 Kd; Biacore, TREM2-His analyte (presumed)
T3 construct: Made in Expi293F cells; the mouse Ig kappa secretion signal is not part of the mature protein; Biotinylated for the Octet binning; also called TREM2-His; TREM2-His protein
T3 sequence: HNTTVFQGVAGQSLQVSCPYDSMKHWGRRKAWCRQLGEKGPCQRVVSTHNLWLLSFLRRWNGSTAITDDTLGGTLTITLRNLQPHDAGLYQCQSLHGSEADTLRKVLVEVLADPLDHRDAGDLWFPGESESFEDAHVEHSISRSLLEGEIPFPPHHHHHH
Procedure: Anti-murine Fc antibody (obtained from GE Healthcare) was immobilized on the surface of a CM5 chip (obtained from GE Healthcare) through amine-coupling to reach about 6,000 to 8,000 response units (RU). The surface was activated by injection of a mixture of 1-ethyl-3-(3-dimethylaminopropyl)-carbodiimide (EDC) and N-hydroxysuccinimide (NHS), both obtained from GE Healthcare, for 7 minutes. Anti-murine Fc antibody was diluted in sodium acetate (pH 5.0) at 25 μg/mL and injected for 10 minutes at a flow rate of 5 μL/minute, followed by injection of ethanolamine (obtained from GE Healthcare) for 7 minutes.
Purified anti-TREM2 hybridoma (20 μg/mL) was captured to reach 1000-1500 RU. A range of serially-diluted TREM2-His protein (e.g., 3.4 nM to 300 nM) was injected at a flow rate of 30 μL/minute, using either single-cycle kinetics methods. Sensorgrams were fitted using a 1:1 Langmuir model to estimate kₒₙ and koff.

[4] = molecular target: T2, Human TREM2 protein, on cells; assay: cell-based or functional assay
Mouse TREM2, on cells [5] = molecular target: T1, Mouse TREM2, on cells; assay: Table 5, cell binding: Mouse TREM2 HEK
[6] = molecular target: T3, His-tagged TREM2 ECD (ecto domain …); assay: Biacore T200, antibody captured, antigen injected, 1:1 model
Procedure: To measure TfR binding, anti-human-Fab was immobilized on a CM5 chip, and the TREM2/TfR-binding protein was captured. Full-length human TfR or human TfR apical domain at serial dilution (e.g., concentrations of 1-1000 nM) was flowed over the chip (180 second association time) and then allowed to dissociate. Fitting was performed using a 1:1 binding model. To measure TREM2 binding, anti-human-Fc antibody was immobilized on a CM5 chip, and the TREM2/TfR-binding protein was captured. A range of concentrations of recombinant TREM2-His protein were flowed over the chip, and allowed to associate and dissociate. The resulting sensograms were fitted using a 1:1 Langmuir model to estimate kₒₙ and koff (FIG. 10).
Biacore Series S CM5 sensor chips were immobilized with a mixture of two monoclonal mouse anti-Fab antibodies (Human Fab capture kit from GE Healthcare). Serial 3-fold dilutions of each antigen were injected at a flow rate of 30 μL/min. The binding of the antigens to captured antibody was monitored for 30 to 180 seconds and then their dissociation was monitored for 30-300 seconds in HBS-EP+running buffer (GE, # BR100669). Binding response was corrected by subtracting the RU from a blank flow cell. A 1:1 Languir model of simultaneous fitting of kₒₙ and koff was used for kinetics analysis.

[7] = molecular target: T2, Human TREM2 protein, on cells; assay: cell-based or functional assay; remark: listed apart in the source

B1: 51D4 (antibody, IgG2a, V domains shown)
VH: QVHLQQSGPEVVRPGVSVKISCKGSGYTFTDYGMHWVKQSHAKSLEWIGVISTYNGNTSYNQKYKGKATVTVDKPSSTAYMELVRLTSEDSAIYYCARDFGYVPFDYWGQGTTLTVSS
VL: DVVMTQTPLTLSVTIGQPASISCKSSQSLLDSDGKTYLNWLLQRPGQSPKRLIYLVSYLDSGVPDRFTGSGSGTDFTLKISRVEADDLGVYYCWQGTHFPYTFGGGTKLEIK
notes: Mouse hybridoma antibody, IgG2a, k; also called 51D4.A1; RS8.51D4.A1
- FOB (fold over binding) (Mouse TREM2, on cells [1]): 1.3 fold
- FOB (fold over binding) [2]: 7.6 fold
- Kd [3]: 2.67 nM
- pSyk FOB (30 nM Ab) [4]: 1.12 fold over background
- binding result (Mouse TREM2, on cells [5]): no binding

B2: 7B10.A2 (antibody, V domains shown)
VH: EVQLQQSGPELVKPGASVKMSCKASGYTFTDYNMHWVKQSHGKSLEWIGYINPNNGGTTYNQKFKGKATLTVNKSSSTAYMELRSLTSEDSAVYYCATYNNHYFDSWGQGTTLTVSS
VL: DIQMTQTTSSLSASLGDRVTISCSASQGISNYLNWYQQKPDGTVKLLIYYTSNLHSGVPSRFSGSGSGTDYSLTISNLEPEDIATYYCQQYSNLPYTFGGGTKLEIK
- pSyk FOB (30 nM Ab) [4]: 6.89 fold over background

B3: 40H3.A4 (antibody, V domains shown)
VH: EVQLQQSGAEVVKPGASVKLSCTASGFNIKDTYMHWVKQRPEQGLEWIGRIDPANGNTKYDPKFQGKATITADTSSNTAYLQLSSLTSEDTAVYYCATLFAYWGQGTLVTVSA
VL: DIVMTQAAFSNPVTLGTSASISCRSSKSLLHSNGITYLYWYLQKPGQSPQLLIYQMSNLASGVPDRFSSSGSGIDFTLRINRVEAEDVGVYYCAQNLELPTFGSGTKLEIK
notes: Mouse hybridoma antibody, isotype N.D; also called RS8.40H3.A4
- FOB (fold over binding) (Mouse TREM2, on cells [1]): 0.8 fold
- FOB (fold over binding) [2]: 1 fold
- Kd [3]: 0.898 nM
- pSyk FOB (30 nM Ab) [4]: 1.23 fold over background
- binding result (Mouse TREM2, on cells [5]): no binding

B4: 57D7.A1 (antibody, V domains shown)
VH: QVQLKESGPGLVAPSQSLSITCTVSGFSLSRYSVYWVRQPPGKGLEWLGMIWGGGNTDYNSALKSRLSISKDNSKSQVFLKMNSLQTDDSAMYYCVQYGGMDYWGQGTSVTVSS
VL: DVLMTQTPLSLPVSLGDQASISCRSSQSIVHSNGNTYLEWYLQKPGQSPKLLIYKVSNRFSGVPDRFSGSGSGTDFTLKISRVEAEDLGVYYCFQGSHVPYTFGGGTKLEIK
notes: Mouse hybridoma antibody, Ig2a, k; also called RS8.57D7.A1
- FOB (fold over binding) (Mouse TREM2, on cells [1]): 1.7 fold
- FOB (fold over binding) [2]: 11.5 fold
- Kd [3]: 2.41 nM
- pSyk FOB (30 nM Ab) [4]: 5.02 fold over background
- binding result (Mouse TREM2, on cells [5]): no binding

B5: 3D3.A1 (antibody, V domains shown)
VH: EVQLQQSGPELVKPGASVKISCKTSGYTLSEYTMHWVIQSHGKSLEWIGGVIPNSGGTSYNQKFRDKASLTVDKSSSTAYLELRSLTSEDSAVYYCARGDDSYRRGYALDYWGQGTSVTVSS
VL: DIVMSQSPSSLAVSVGEKVTMSCKSSQSLLYSSNQKSYLAWYQQKPGQSPKLLIYWASTRESGVPDRFRGSGSGTDFTLTISSVKAEDLAVYYCQQYFSYPPTFGGGTKLEIK
notes: Mouse hybridoma antibody, Ig2a, k; also called RS8.3D3.A1
- FOB (fold over binding) (Mouse TREM2, on cells [1]): 8.4 fold
- Kd [6]: 40 nM
- koff [6]: 0.019 s⁻¹
- kon [6]: 480000 M⁻¹ s⁻¹
- FOB (fold over binding) [2]: 11.7 fold
- Kd [3]: 7.43 nM
- pSyk FOB (30 nM Ab) [4]: 10.3 fold over background

B6: 21D11 (antibody, IgG2a, V domains shown)
VH: QVQLQQSGAELARPGASVKLSCKASGYTFTSYWIQWVKQRPGQGLEWIGTIYPGDGDARYTQKFKGKATLTADKSSSTTYMQLNSLASEDSAVYYCARNGITTAGYYAMDYWGQGTSVTVSS
VL: DIQMTQSPASLSVSVGETVTITCRASENIYSNLAWYQQKQGRSPQLLVYAATNLADGVPSRFSGSGSGTQYSLKINSLQSEDFGYYYCQHFWGTPYTFGGGTKVEIK
notes: Mouse hybridoma antibody, IgG2a, k; also called 21D11.B1; RS8.21D11.B1
- FOB (fold over binding) (Mouse TREM2, on cells [1]): 1.5 fold
- FOB (fold over binding) [2]: 8.4 fold
- Kd [3]: 0.525 nM
- pSyk FOB (30 nM Ab) [4]: 1.68 fold over background
- binding result (Mouse TREM2, on cells [5]): no binding

B7: 21D4.D1 (antibody, V domains shown)
VH: QVQLQQSGADLLRPGVSVKISCKGSGYTFTDHAMHWVKQSHAESLEWIGVISTYSGDTGYNQKFKGKATMTVDKSSSTAYLELARLTSEDSAIYYCAREGHYDDAMDYWGQGTSVTVSS
VL: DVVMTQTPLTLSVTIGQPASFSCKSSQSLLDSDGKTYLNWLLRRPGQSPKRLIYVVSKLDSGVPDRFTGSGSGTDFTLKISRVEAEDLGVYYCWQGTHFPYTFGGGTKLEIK
notes: Mouse hybridoma antibody, Ig2a, k; also called RS8.21D4.D1
- FOB (fold over binding) (Mouse TREM2, on cells [1]): 4 fold
- FOB (fold over binding) [2]: 12.3 fold
- Kd [3]: 1.82 nM
- binding result (Mouse TREM2, on cells [5]): no binding

B8: 42E8.H1 (antibody, V domains shown)
VH: DVQLQESGPGLVKPSQSLSLTCTVTGYSITSDYAWNWIRQFPGNKLEWMGYINYSGRTIYNPSLKSRISITRDTSKNHFFLQLISVTTEDTATYYCARWNGNYGFAYWGQGTLVTVSA
VL: DVVMTQNPLSLPVSLGDQASISCRSSQSLVHINGNTYLHWYLQKPGQSPKLLIYKVSNRFSGVPDRFSGSGSGTDFTLKISRVEAEDLGVYFCSQTTHALFTFGSGTKLEIK
notes: Mouse hybridoma antibody, Ig2a, k; also called RS8.42E8.H1
- FOB (fold over binding) (Mouse TREM2, on cells [1]): 3.5 fold
- FOB (fold over binding) [2]: 10.6 fold
- Kd [3]: 17 nM
- pSyk FOB (30 nM Ab) [4]: 7.17 fold over background
- binding result (Mouse TREM2, on cells [5]): no binding

B9: 26E2.A3 (antibody, V domains shown)
VH: QVHLQQSGSELRSPGSSVKLSCKDFDSEVFPISYMSWIRQKPGHGFEWIGDILPSIGGRIYGVKFEDRATLDADTVSNTAYLELNSLTSEDSAIYYCARKDYGSLAYWGQGTLVTVSA
VL: B8 VL with N7T, H39Q, Y41F, D75A, T96S, A99V, L100P, F101Y, S105G
notes: Mouse hybridoma antibody, Ig2a, k; also called RS8.26E2.A3
- FOB (fold over binding) (Mouse TREM2, on cells [1]): 1.5 fold
- FOB (fold over binding) [2]: 10.3 fold
- Kd [3]: 12.8 nM
- pSyk FOB (30 nM Ab) [4]: 4.67 fold over background
- binding result (Mouse TREM2, on cells [5]): no binding

B10: 49H11.B1 (antibody, IgG3, V domains shown)
VH: B8 VH with K45R, N53S, Y54F, R57S, I59S, H78Q, I84N
VL: B8 VL with N7T, T96S, A99V, L100T
notes: Mouse hybridoma antibody, IgG3, k; also called RS8.49H11.B1
- FOB (fold over binding) (Mouse TREM2, on cells [1]): 1.2 fold
- FOB (fold over binding) [2]: 7 fold
- pSyk (nM), EC50 [7]: 26.5 nM
- Kd [3]: 63.4 nM
- pSyk FOB (30 nM Ab) [4]: 11.6 fold over background
- binding result (Mouse TREM2, on cells [5]): no binding

B11: 26D2.D1 (antibody, IgG2a, V domains shown)
VH: EVQLQQSGPELVKPGASVKMSCKASGYTFTSYVMHWVKQKPGQGLEWIGYINPYTDGTKYNEKFKGKATLTSDKSSSTAYMDLSSLTSEDSAVYYCARGEVRRYALDYWGQGTSVTVSS
VL: DIQMTQSSSSFSVSLGDRVTITCKASEDIYNRLAWYQQKPGNAPRLLISGATSLETGVPSRFSGSGSGKDYTLSITSLQTEDVATYYCQQYWSTPWTFGGGTKLEIK
notes: Mouse hybridoma antibody, IgG2a, k; also called RS8.26D2.D1
- FOB (fold over binding) (Mouse TREM2, on cells [1]): 2.8 fold
- FOB (fold over binding) [2]: 4.9 fold
- Kd [3]: 15 nM
- pSyk FOB (30 nM Ab) [4]: 1.73 fold over background
- binding result (Mouse TREM2, on cells [5]): no binding
